Test results published in patent US20210238304A1 (EISAI R AND D MANAGEMENT, published 2021).

Legend:
[1] = target: T1, human mesothelin (recombinant, soluble) (human, UniProt Q13421 296-598); experiment: SPR BIAcore, captured mAb, mesothelin analyte
[2] = target: T1, human mesothelin (recombinant, soluble); experiment: SPR BIAcore, parental mAb captured, mesothelin analyte
[3] = target: T2, human mesothelin (recombinant, soluble) (human, UniProt Q13421 296-598, limits assumed); experiment: SPR BIAcore, affinity against anetumab as reference
T2 construct: Analyte in BIAcore, coat in ELISA (CHO-MT40 mesothelin), biotinylated on Octet tips; also called MSLN; CHO-MT40 mesothelin
Method: (§1) Binding affinity: Binding measurements were performed in HBS-P+ buffer on a BIAcore T-100 instrument. Antibodies were diluted to 1 μg/mL in HBS-P+. Samples were centrifuged at 14,000×g for 5 min at room temperature and then supernatants were transferred to a new 1.5 mL BIAcore tube and capped. […] Anti-human antibody capture chip was prepared according to the manufacturer's protocol using a CMS chip with immobilization wizard. Final capture antibody levels were 8000-9000RU, in HBS-P+.
(§2) Antibodies were captured on flow cells 2-4 by sequential injections of individual ligand solutions for 90 sec at 10 μL/min. Analyte injection was done in a single-cycle kinetics manner by sequential injections of analyte solutions from low to high concentration for 240 sec each at 30 μL/min. Detection was 2-1, 3-1, 4-1. Double-referencing was performed by a sequence of identical ligand capture injections, followed by 5 buffer-only injections for 240 sec each, dissociation for 1800 sec, and regeneration as above. All ligands were analyzed for binding to mesothelin in duplicate. Kinetic analysis was performed using BIAEvaluations software using a 1:1 Langmuir fitting model. On-rate, off-rate, and affinity constants were averaged from duplicate runs.

[4] = target: T2, human mesothelin (recombinant, soluble); experiment: SPR BIAcore T-100, captured mAb, mesothelin 0.16-100 nM, single-cycle kinetics
Method: as §1, §2

[5] = target: cynomolgus monkey mesothelin (cynomolgus monkey); experiment: SPR BIAcore T-100, captured mAb, mesothelin analyte, single-cycle kinetics
Method: as §1, §2

[6] = target: T2, human mesothelin (recombinant, soluble); experiment: SPR BIAcore, run 4
Method: as §2, with “Anti-mesothelin antibody binding affinity to mesothelin was measured by BIAcore (BIAcore T-100, GE healthcare, #1426075), using a series S CMS chip. Antibody concentrations were adjusted to 1 μg/mL and mesothelin (50 μg) to 100 nM in 1×HBS-P+ buffer (GE Healthcare). Anti-human antibody capture chip was prepared according to the manufacturer's protocol using a CMS chip with immobilization wizard. Final capture antibody levels were 8000-9000 RU, in HBS-P+. Chip was prepared for assay with five cycles of 300 sec buffer injection followed by 30 sec regeneration, all at 30 μL/min across all four flow cells. Antibodies” for “Antibodies”

[7] = target: T3, rat mesothelin (rat, UniProt Q9ERA7 298-600, limits assumed); experiment: SPR BIAcore, captured mAb, mesothelin analyte
T3 sequence (looked up): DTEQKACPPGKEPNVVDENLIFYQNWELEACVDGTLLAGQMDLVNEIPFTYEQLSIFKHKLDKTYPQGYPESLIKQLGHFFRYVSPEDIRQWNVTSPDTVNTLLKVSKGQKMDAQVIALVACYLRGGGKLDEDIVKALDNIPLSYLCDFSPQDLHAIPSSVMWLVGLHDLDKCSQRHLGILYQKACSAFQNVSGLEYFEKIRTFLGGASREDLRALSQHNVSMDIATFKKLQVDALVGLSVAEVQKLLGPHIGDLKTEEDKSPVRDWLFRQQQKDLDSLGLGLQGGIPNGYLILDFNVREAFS
Method: as §1, §2

[8] = target: human mesothelin expressed on cells (human, UniProt Q13421 37-598); experiment: cell-based or functional assay
Chain of human mesothelin expressed on cells (Q13421 other isoform, or with tags, fused parts or gaps): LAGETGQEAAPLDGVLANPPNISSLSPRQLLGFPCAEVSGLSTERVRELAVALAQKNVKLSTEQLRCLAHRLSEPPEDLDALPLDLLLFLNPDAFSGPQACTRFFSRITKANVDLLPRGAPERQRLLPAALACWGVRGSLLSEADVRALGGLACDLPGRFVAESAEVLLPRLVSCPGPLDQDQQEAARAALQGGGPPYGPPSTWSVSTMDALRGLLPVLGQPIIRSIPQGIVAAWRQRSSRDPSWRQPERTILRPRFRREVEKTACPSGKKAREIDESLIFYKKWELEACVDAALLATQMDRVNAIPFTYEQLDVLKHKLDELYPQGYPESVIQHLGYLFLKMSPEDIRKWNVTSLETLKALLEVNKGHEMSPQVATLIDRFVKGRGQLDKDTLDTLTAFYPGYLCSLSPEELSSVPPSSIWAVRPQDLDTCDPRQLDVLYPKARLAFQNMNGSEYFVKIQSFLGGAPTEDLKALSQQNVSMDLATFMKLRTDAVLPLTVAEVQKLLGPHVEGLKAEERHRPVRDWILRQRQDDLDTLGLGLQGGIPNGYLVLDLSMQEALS

T1 sequence (Q13421 other isoform, or with tags, fused parts or gaps): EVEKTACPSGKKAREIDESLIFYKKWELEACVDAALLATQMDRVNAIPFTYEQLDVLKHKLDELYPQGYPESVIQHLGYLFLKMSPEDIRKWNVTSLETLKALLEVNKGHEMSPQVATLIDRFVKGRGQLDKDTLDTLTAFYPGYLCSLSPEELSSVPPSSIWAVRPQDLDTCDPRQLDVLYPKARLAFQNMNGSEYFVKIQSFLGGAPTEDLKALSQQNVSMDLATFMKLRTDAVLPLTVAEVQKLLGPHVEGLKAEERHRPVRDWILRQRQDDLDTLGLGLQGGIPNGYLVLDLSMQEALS

B1: 33O11 (rabbit-human chimeric anti-human mesothelin antibody) (antibody, V domains shown)
VH: QSVEESGGRLVTPGTPLTLTCTVSGISLSSDAISWVRQAPGKGLEYIGIINGGGNTYYASWAKGRFTISKTSTTVDLKITSPTTEDTATYFCARGIQHGGGNSDYYYYGMDLWGPGTLVTVSS
VL: EVLMTQTPSSVSAAVGDTVTIKCQASQSISSVLSWYQQKPGQPPKLLIYLASTLASGVPSRFSGSRSGTEFTLTISDLECDDAATYYCQTNYGTSSSNYGFAFGGGTEVVVK
[1]
  Kd: 0.335 nM
  koff: 0.000668 s⁻¹
  kon: 1.99e+06 M⁻¹ s⁻¹

B2: 237N18 (rabbit-human chimeric anti-human mesothelin antibody) (antibody, V domains shown)
VH: QSLEESGGRLVAPGTPLTLTCTVSGFSLSSYHMSWVRQAPGEGLEWIGGITAMSRTYYASWAKGRFTISKTSTTVHLKITSPTTEDTATYFCAREPGFVSNIWGPGTLVTVSL
VL: AVVLTQTASPVSGVVGGTVTIKCQASQNIYSNLAWYQQKPGQRPKLLMYDASTLASGVPSRFKGSGSGTQFTLTISDLECADAATYYCQSISSVDNNVFGGGTEVVVK
[1]
  Kd: 3.38 nM
  koff: 0.00428 s⁻¹
  kon: 1.27e+06 M⁻¹ s⁻¹

B3: 111B10 zu (humanized, CDR-grafted HC1-LC1) (antibody, V domains shown)
VH: EVQLVESGGGLVQPGGSLRLSCAASGFSLNNYAMSWVRQAPGKGLEWIGSISTGGLAFYANWAKGRFTISRDNSKNTLYLQMNSLRAEDTAVYYCARNGGGSYIFYYFDLWGQGTLVTVSS
VL: DIQMTQSPSSLSASVGDRVTITCQASQSISSYLSWYQQKPGKAPKLLIYSASTLASGVPSRFSGSGSGTDFTLTISSLQCEDAATYYCQSYYDIGTSTFGGGTKVEIKR
[2]
  Kd: 6.5 nM
  koff: 0.003 s⁻¹
  kon: 510000 M⁻¹ s⁻¹

B4: 346C6 zu (humanized, CDR-grafted HC1-LC1) (antibody, V domains shown)
VH: EVQLVESGGGLVQPGGSLRLSCAASGFSLSSYAMIWVRQAPGKGLEWIGTISTGGITYYASWAKGRFTISRDNSKNTLYLQMNSLRAEDTAVYYCARGGYAASSAYYLPYYFDLWGQGTLVTVSS
VL: DIQMTQSPSSLSASVGDRVTITCQSSQSVYNNNNLAWYQQKPGKVPKLLIYLASTLASGVPSRFSGSGSGTDFTLTISSLQCEDAATYYCLGGCDDDADTFAFGGGTKVEIKR
[2]
  Kd: 8.9 nM
  koff: 0.093 s⁻¹
  kon: 1.33e+07 M⁻¹ s⁻¹

B5: 201C15 zu (humanized, CDR-grafted HC1-LC1) (antibody, V domains shown)
VH: QVQLVESGGGLVQPGGSLRLSCSASGIDLSSYAMGWVRQAPGKGLEYIGTINIGGRVYYASWAKGRFTISRDNSKNTLYLQMNSLRAEDTAVYYCARYYNGGSYDIWGQGTLVTVSS
VL: DIQMTQSPSTLSASVGDRVTITCQASESIYRVLAWYQQKPGKAPKLLIYDTSTLASGVPSRFSGSGSGTEFTLTISSLQCDDAATYYCQGGYYADSYGIAFGGGTKVEIKR
[2]
  Kd: 4.2 nM
  koff: 0.0011 s⁻¹
  kon: 310000 M⁻¹ s⁻¹

B6: Xi-383I18(AuF) (antibody, V domains shown)
VH: SQSVEESGGRLVTPGTPLTLTCTVSGFSLSSYAMGWVRQAPGEGLEWIGTISTGGITYYASWAKGRFTISKTSTTVDLKITSPTTEDTATYFCARVGSSGYLFYFFNLWGQGTLVTVSS
VL: VFELTQTPSPVSAAVGGTVTIRCQASQNIKSYLAWYQQKPGQPPKLLIYEASILASGVSSRFKGSGSGTEFTLTISDLECADAATYYCQSYYAASSNAFGGGTEVVVK
[1]
  Kd: 0.28 nM
  koff: 0.000281 s⁻¹
  kon: 1.01e+06 M⁻¹ s⁻¹

B7: 345A12-HC15-LC4 (antibody, human IgG1, kappa, V domains shown)
VH: QVQLVESGGGVVQPGRSLRLSCAASGIDLSSYAMSWVRQAPGKGLEWIGVIDISGNRFYADWVKGRFTISRDNSKNTLYLQMSSLRAEDTAVYYCARVDSRAWGPFNLWGQGTLVTVSS
VL: DYQMTQSPSSLSASVGDRVTITCQASQSIFSYLAWYQQKPGKAPKLLIYDASDLASGVPSRFSGSGSGTDFTLTISSLQCEDAATYYCQQGYTRSDVDNAFGGGTKVEIKR
notes: Humanized rabbit antibody, human IgG1/kappa, unpaired Cys80 in the light chain; also called zu345A12-HC15-LC4
[3]
  fold higher affinity than anetumab: 40 fold
[4]
  Kd: 0.195 nM
  koff: 0.000285 s⁻¹
  kon: 1.46e+06 M⁻¹ s⁻¹
[5]
  Kd: 88.6 nM
  koff: 0.000751 s⁻¹
  kon: 10500 M⁻¹ s⁻¹
[6]
  Kd: 0.0779 nM
  koff: 0.000112 s⁻¹
  kon: 1.44e+06 M⁻¹ s⁻¹
[7]
  binding result: no binding (tested: 100 nM highest analyte concentration)

B8: BAY 94-9343 (anetumab ravtansine) (antibody, human IgG1, lambda, V domains shown)
VH: QVELVQSGAEVKKPGESLKISCKGSGYSFTSYWIGWVRQAPGKGLEWMGIIDPGDSRTRYSPSFQGQVTISADKSISTAYLQWSSLKASDTAMYYCARGQLYGGTYMDGWGQGTLVTVSS
VL: DIALTQPASVSGSPGQSITISCTGTSSDIGGYNSVSWYQQHPGKAPKLMIYGVNNRPSGVSNRFSGSKSGNTASLTISGLQAEDEADYYCSSYDIESATPVFGGGTKLTVLG
modifications: SPDB-DM4 on lysines, DAR 3.7 for the whole antibody, positions not given
[8]
  EC50 (read off the curve): % killing of NCI-N87 cells, BAY 94-9343 alone: ~0.8 nM
  EC50 (read off the curve): % killing of NCI-N87 cells, BAY 94-9343 with 3 uM unconjugated anetumab: ~0.8 nM

B9: anetumab (antibody, human IgG1, lambda, V domains shown)
VH: B8 VH
VL: B8 VL
[4]
  Kd: 7.26 nM
  koff: 0.00112 s⁻¹
  kon: 168000 M⁻¹ s⁻¹
[7]
  binding result: no binding (tested: 100 nM highest analyte concentration)
